Experimental data reported in patent publication US20070212686A1 (WHITEHEAD INSTITUTE FOR BIOMEDICAL RESEARCH, published 2007).

T1: bacterial-expressed 3'Flag-Acrp30 (full length) (murine, UniProt Q60994 18-247)
T1 construct: The bacterial construct is not described; also called Full Length Acrp; bacterial expressed Flag-tagged full-length
T1 sequence: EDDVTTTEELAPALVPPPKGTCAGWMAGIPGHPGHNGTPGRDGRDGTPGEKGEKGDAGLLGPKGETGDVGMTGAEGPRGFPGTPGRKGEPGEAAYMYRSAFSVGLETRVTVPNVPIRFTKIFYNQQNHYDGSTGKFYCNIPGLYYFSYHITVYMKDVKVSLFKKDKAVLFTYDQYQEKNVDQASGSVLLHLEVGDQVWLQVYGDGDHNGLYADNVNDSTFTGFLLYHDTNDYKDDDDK

B1: murine T-cadherin (full-length), over-expressed on cells (receptor)
chain: SIVVSPILIPENQRQPFPRDVGKVVDSDRPEGSKFRLTGKGVDQDPKGTFRINENTGSVSVTRTLDRETIATYQLYVETTDASGKTLEGPVPLEVIVIDQNDNRPIFREGPYIGHVMEGSPTGTTVMRMTAFDADDPATDNALWRYNIRQQTPDKPSPNMFYIDPEKGDIVTVVSPALLDRETLENPKYELIIEAQDMAGLDVGLTGTATATIVIDDKNDHSPKFTKKEFQARVEEGAVGVIVNLTVEDKDDPTTGAWRAAYTIINGNPGQSFEIHTNPQTNEGMLSVVKPLDYEISAFHTLLIKVENEDPLVPDVSYGPSSTATVHITVLDVNEGPVFYPDPMMVTKQENISVGSVLLTVNATDPDSLQHQTIRYSIYKDPAGWLSINPINGTVDTTAVLDRESPFVHNSVYTALFLAIDSGNPPATGTGTLLITLEDINDNAPVIYPTVAEVCDDARNLSVVILGASDKDLHPNTDPFKFEIHKQTVPDKVWKISKINNTHALVSLLQNLNKANYNLPIMVTDSGKPPMTNITDLKVQVCSCKNSKVDCNGAG
modifications: GPI anchor at the C-terminus (said of T-cadherin in general in the background)
notes: Expressed from the full-length cDNA in CHO, CHO-ER and Ba/F3 cells; also called pCDNA-Tcad; pBI-GFP-Tcad

Experiments:
[1] = target: T1, bacterial-expressed 3'Flag-Acrp30 (full …); experiment: cell ELISA on CHO-T-cadherin cells, anti-Flag M2 detection
Procedure: (§1) CHO-ER cell lines infected with the bicistronic retroviral construct pBI-GFP-Tcad (referred to as CHO-T-cadherin) and control cells infected with pBI-GFP (referred to as CHO-GFP) were each grown in 96 well plates. One day after plating (1.5×10⁴/well), the cells were incubated in serum-free media for one hour, placed at 4° C. for thirty minutes, and blocked in PBS++ containing 4% dried milk for thirty minutes. Bacterial expressed Flag-tagged globular-Acrp30 bacterial expressed Flag-tagged full-length, or purified trimeric or hexameric and HMW 5′Flag-Acrp30 produced in HEK cells were incubated with the cells for one hour in blocking buffer at the indicated concentrations. The HEK expressed polypeptides were produced and purified by ammonium sulfate precipitation and anion-exchange chromatography. Pools containing the trimeric or a combination of hexamer and HMW 5′Flag-Acrp30 were identified by native gel electrophoresis and immunoblotting with a Flag antibody. The purity of these preparations was judged to be approximately 50% by Coomassie PAGE analysis. Protein concentration was determined by BCA assay (Pierce). The concentration of purified bacterial expressed proteins was determined by the absorbance at 280 nm and the calculated extinction coefficient derived from the primary amino acid sequence (Protean; DNAStar). […] The absorbance at 450 nm was measured with a plate reader.

[2] = target: B1; experiment: cell ELISA on CHO-T-cadherin cells, anti-Flag M2 detection; concentration as trimer equivalents
Procedure: as §1

Row | Binder | binding result [1] | EC50 [2] [nM]
1 | B1 | no binding | 
2 | HEK produced hexameric and high-molecular weight 5'FlagAcrp30 (ligand, Pool of hexamers (6 chains) and HMW species (more than 6 chains), about 50% pure, made by ammonium sulfate precipitation and anion exchange; also called HEX & HMW; hexameric and HMW 5'Flag-Acrp30) DYKDDDDKEDDVTTTEELAPALVPPPKGTCAGWMAGIPGHPGHNGTPGRDGRDGTPGEKGEKGDAGLLGPKGETGDVGMTGAEGPRGFPGTPGRKGEPGEAAYMYRSAFSVGLETRVTVPNVPIRFTKIFYNQQNHYDGSTGKFYCNIPGLYYFSYHITVYMKDVKVSLFKKDKAVLFTYDQYQEKNVDQASGSVLLHLEVGDQVWLQVYGDGDHNGLYADNVNDSTFTGFLLYHDTN |  | 25 to 50
